Experimental data taken from PMC314469, “Protein Interaction Networks by Proteome Peptide Scanning” (PLoS Biology, 2004).

T1: Boi1 SH3 (BOI1_YEAST), P38041
T1 chain: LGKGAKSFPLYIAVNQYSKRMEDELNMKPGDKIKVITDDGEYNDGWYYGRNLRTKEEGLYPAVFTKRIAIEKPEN

T2: Boi2 SH3 (BOI2_YEAST), P39969
T2 chain: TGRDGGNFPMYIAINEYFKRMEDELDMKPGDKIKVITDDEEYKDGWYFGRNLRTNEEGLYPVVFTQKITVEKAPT

T3: Myo5 SH3 (MYO5_YEAST), Q04439
T3 chain: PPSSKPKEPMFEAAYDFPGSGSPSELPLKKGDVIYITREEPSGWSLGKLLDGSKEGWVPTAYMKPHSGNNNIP

T4: Rvs167 SH3 (RV167_YEAST), P39743
T4 chain: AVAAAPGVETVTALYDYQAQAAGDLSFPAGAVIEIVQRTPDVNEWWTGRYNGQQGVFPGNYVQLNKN

T5: Yfr024 SH3 (LSB3_YEAST), P43603
T5 chain: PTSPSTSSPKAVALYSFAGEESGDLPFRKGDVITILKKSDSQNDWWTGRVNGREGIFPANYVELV

T6: Yhr016c SH3 (YSC84_YEAST), P32793
T6 chain: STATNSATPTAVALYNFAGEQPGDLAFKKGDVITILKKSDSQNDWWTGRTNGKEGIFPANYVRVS


Biological target: T1, Boi1 SH3 (BOI1_YEAST), P38041
Experiment: SPOT array

| normalised SPOT signal, Boehringer light units (BLU); mean over the file's lines of this peptide | Binder |
| --- | --- |
| 292 | TMKNKPKPTPPSPP [YPR171W 298-311] |
| 95.1 | TSGYKYFPQFPQLK [YOR227W 765-778] |
| 418 | TSSSRRGPGRPRKD [YDR310C 200-213] |
| 30.1 | TNGPRYSPQNPRPF [YMR124W 350-363] |
| 60.6 | TLNDRQIPLSPDQM [YAL026C 387-400] |
| 728 | TQSGRMGPSEPKHR [YML020W 26-39] |
| 2890 | TQMKRLKPVSPGLR [YEL050C 91-104] |
| 29.7 | TSNTKWTPITPSVI [YDR515W 74-87] |
| 53.6 | TNSVKATPVPPTLA [YLR337C 365-378] |
| 0 | TLDEKNLPRLPTPF [YKR055W 36-49] |
| 1510 | TLKKKKTPKKPIAA [YKR084C 77-90] |
| 95.3 | TSISRISPQDPEAK [YDR109C 25-38] |
| 29.2 | TSSLRKPPNGPSSV [YOR097C 144-157] |
| 0 | TSSTKEKPTPPTTT [YIR019C 265-278] |
| 17200 | TQPVRKNPEAPARR [YOR042W 151-164] |
| 57.1 | TPQSRFPPYSPLLP [YDR103W 267-280] |

Biological target: T2, Boi2 SH3 (BOI2_YEAST), P39969
Experiment: SPOT array

| normalised SPOT signal, Boehringer light units (BLU); mean over the file's lines of this peptide | Binder |
| --- | --- |
| 52.3 | TMKNKPKPTPPSPP [YPR171W 298-311] |
| 32.8 | TSGYKYFPQFPQLK [YOR227W 765-778] |
| 23.6 | TSSSRRGPGRPRKD [YDR310C 200-213] |
| 15.5 | TNGPRYSPQNPRPF [YMR124W 350-363] |
| 27.5 | TLNDRQIPLSPDQM [YAL026C 387-400] |
| 34.4 | TQSGRMGPSEPKHR [YML020W 26-39] |
| 1140 | TQMKRLKPVSPGLR [YEL050C 91-104] |
| 6.7 | TSNTKWTPITPSVI [YDR515W 74-87] |
| 2.7 | TNSVKATPVPPTLA [YLR337C 365-378] |
| 0 | TLDEKNLPRLPTPF [YKR055W 36-49] |
| 13 | TLKKKKTPKKPIAA [YKR084C 77-90] |
| -0 | TSISRISPQDPEAK [YDR109C 25-38] |
| 17.3 | TSSLRKPPNGPSSV [YOR097C 144-157] |
| 0.9 | TSSTKEKPTPPTTT [YIR019C 265-278] |
| 32.4 | TQPVRKNPEAPARR [YOR042W 151-164] |
| 7.5 | TPQSRFPPYSPLLP [YDR103W 267-280] |

Biological target: T3, Myo5 SH3 (MYO5_YEAST), Q04439
Experiment: SPOT array

| normalised SPOT signal, Boehringer light units (BLU); mean over the file's lines of this peptide | Binder |
| --- | --- |
| 910 | TMKNKPKPTPPSPP [YPR171W 298-311] |
| 235 | TSGYKYFPQFPQLK [YOR227W 765-778] |
| 620 | TSSSRRGPGRPRKD [YDR310C 200-213] |
| 158 | TNGPRYSPQNPRPF [YMR124W 350-363] |
| 73.6 | TLNDRQIPLSPDQM [YAL026C 387-400] |
| 456 | TQSGRMGPSEPKHR [YML020W 26-39] |
| 1450 | TQMKRLKPVSPGLR [YEL050C 91-104] |
| 142 | TSNTKWTPITPSVI [YDR515W 74-87] |
| 168 | TNSVKATPVPPTLA [YLR337C 365-378] |
| 205 | TLDEKNLPRLPTPF [YKR055W 36-49] |
| 535 | TLKKKKTPKKPIAA [YKR084C 77-90] |
| 194 | TSISRISPQDPEAK [YDR109C 25-38] |
| 144 | TSSLRKPPNGPSSV [YOR097C 144-157] |
| 118 | TSSTKEKPTPPTTT [YIR019C 265-278] |
| 232 | TQPVRKNPEAPARR [YOR042W 151-164] |
| 443 | TPQSRFPPYSPLLP [YDR103W 267-280] |

Biological target: T4, Rvs167 SH3 (RV167_YEAST), P39743
Experiment: SPOT array

| normalised SPOT signal, Boehringer light units (BLU); mean over the file's lines of this peptide | Binder |
| --- | --- |
| 48 | TMKNKPKPTPPSPP [YPR171W 298-311] |
| 58.8 | TSGYKYFPQFPQLK [YOR227W 765-778] |
| 269 | TSSSRRGPGRPRKD [YDR310C 200-213] |
| 85.3 | TNGPRYSPQNPRPF [YMR124W 350-363] |
| 120 | TLNDRQIPLSPDQM [YAL026C 387-400] |
| 336 | TQSGRMGPSEPKHR [YML020W 26-39] |
| 1960 | TQMKRLKPVSPGLR [YEL050C 91-104] |
| 35 | TSNTKWTPITPSVI [YDR515W 74-87] |
| 34.8 | TNSVKATPVPPTLA [YLR337C 365-378] |
| 64.3 | TLDEKNLPRLPTPF [YKR055W 36-49] |
| 30.6 | TLKKKKTPKKPIAA [YKR084C 77-90] |
| 8.5 | TSISRISPQDPEAK [YDR109C 25-38] |
| 455 | TSSLRKPPNGPSSV [YOR097C 144-157] |
| 34.3 | TSSTKEKPTPPTTT [YIR019C 265-278] |
| 410 | TQPVRKNPEAPARR [YOR042W 151-164] |
| 28 | TPQSRFPPYSPLLP [YDR103W 267-280] |

biological target: Sho1 SH3 (SHO1_YEAST), P40073; experiment: SPOT array
Sequence (P40073 295-366): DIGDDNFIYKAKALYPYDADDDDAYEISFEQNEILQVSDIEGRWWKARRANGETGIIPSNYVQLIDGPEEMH

| normalised SPOT signal, Boehringer light units (BLU); mean over the file's lines of this peptide | Binder |
| --- | --- |
| 47.8 | TMKNKPKPTPPSPP [YPR171W 298-311] |
| 36.2 | TSGYKYFPQFPQLK [YOR227W 765-778] |
| 416 | TSSSRRGPGRPRKD [YDR310C 200-213] |
| 7.4 | TNGPRYSPQNPRPF [YMR124W 350-363] |
| 30.3 | TLNDRQIPLSPDQM [YAL026C 387-400] |
| 78.4 | TQSGRMGPSEPKHR [YML020W 26-39] |
| 417 | TQMKRLKPVSPGLR [YEL050C 91-104] |
| 18.6 | TSNTKWTPITPSVI [YDR515W 74-87] |
| 50.1 | TNSVKATPVPPTLA [YLR337C 365-378] |
| 28100 | TLDEKNLPRLPTPF [YKR055W 36-49] |
| 64.1 | TLKKKKTPKKPIAA [YKR084C 77-90] |
| 29.1 | TSISRISPQDPEAK [YDR109C 25-38] |
| 99 | TSSLRKPPNGPSSV [YOR097C 144-157] |
| 21 | TSSTKEKPTPPTTT [YIR019C 265-278] |
| 60.1 | TQPVRKNPEAPARR [YOR042W 151-164] |
| 34.7 | TPQSRFPPYSPLLP [YDR103W 267-280] |

Biological target: T5, Yfr024 SH3 (LSB3_YEAST), P43603
Experiment: SPOT array

| normalised SPOT signal, Boehringer light units (BLU); mean over the file's lines of this peptide | Binder |
| --- | --- |
| 588 | TMKNKPKPTPPSPP [YPR171W 298-311] |
| 134 | TSGYKYFPQFPQLK [YOR227W 765-778] |
| 969 | TSSSRRGPGRPRKD [YDR310C 200-213] |
| 470 | TNGPRYSPQNPRPF [YMR124W 350-363] |
| 60.2 | TLNDRQIPLSPDQM [YAL026C 387-400] |
| 637 | TQSGRMGPSEPKHR [YML020W 26-39] |
| 4080 | TQMKRLKPVSPGLR [YEL050C 91-104] |
| 36.9 | TSNTKWTPITPSVI [YDR515W 74-87] |
| 7.5 | TNSVKATPVPPTLA [YLR337C 365-378] |
| 92.4 | TLDEKNLPRLPTPF [YKR055W 36-49] |
| 304 | TLKKKKTPKKPIAA [YKR084C 77-90] |
| 20.2 | TSISRISPQDPEAK [YDR109C 25-38] |
| 121 | TSSLRKPPNGPSSV [YOR097C 144-157] |
| 58.6 | TSSTKEKPTPPTTT [YIR019C 265-278] |
| 3700 | TQPVRKNPEAPARR [YOR042W 151-164] |
| 33.7 | TPQSRFPPYSPLLP [YDR103W 267-280] |

Biological target: T6, Yhr016c SH3 (YSC84_YEAST), P32793
Experiment: SPOT array

| normalised SPOT signal, Boehringer light units (BLU); mean over the file's lines of this peptide | Binder |
| --- | --- |
| 217 | TMKNKPKPTPPSPP [YPR171W 298-311] |
| 20.3 | TSGYKYFPQFPQLK [YOR227W 765-778] |
| 65 | TSSSRRGPGRPRKD [YDR310C 200-213] |
| 43.5 | TNGPRYSPQNPRPF [YMR124W 350-363] |
| 42.6 | TLNDRQIPLSPDQM [YAL026C 387-400] |
| 109 | TQSGRMGPSEPKHR [YML020W 26-39] |
| 634 | TQMKRLKPVSPGLR [YEL050C 91-104] |
| 21 | TSNTKWTPITPSVI [YDR515W 74-87] |
| 23.7 | TNSVKATPVPPTLA [YLR337C 365-378] |
| 64.8 | TLDEKNLPRLPTPF [YKR055W 36-49] |
| 31.6 | TLKKKKTPKKPIAA [YKR084C 77-90] |
| 19 | TSISRISPQDPEAK [YDR109C 25-38] |
| 37.6 | TSSLRKPPNGPSSV [YOR097C 144-157] |
| 29.7 | TSSTKEKPTPPTTT [YIR019C 265-278] |
| 159 | TQPVRKNPEAPARR [YOR042W 151-164] |
| 34.2 | TPQSRFPPYSPLLP [YDR103W 267-280] |
